Test results published in the supplement of paper PMC10724198.
± gives the standard deviation of the averaged measurements.

Test system: Saccharomyces cerevisiae
Assay: protein stability index of tFT-peptide fusion (C-terminal peptide) (PSI (0-1 scale)); higher = more stable (slower turnover)
Conditions: temperature: 30 C
Method: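 MPS profiling in S. cerevisiae of the yeast C-terminome library: the last 12 aa of each annotated ORF are fused to the C-terminus of a sfGFP-mCherry timer, after a GGGS linker. Cells are FACS-sorted into 8 mCherry/sfGFP bins and deep-sequenced. PSI runs from 0 (unstable) to 1 (stable); wild type and das1Δ backgrounds, two technical replicates each.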

[1] = genetic background: das1 deletion

Sequence | protein stability index [1] | protein stability index (genetic background: wild type)
LIEDVNKLKIKA [SOV1 C-terminal 12 aa] | 0.634 ± 0.029 | 0.645 ± 0.025
LLQVCFIGVVCE [IRC21 C-terminal 12 aa] | 0.275 ± 0.0082 | 0.2885 ± 0.0018
DDEEDEEEGQVA [USO1 C-terminal 12 aa] | 0.704 ± 0.013 | 0.66 ± 0.027
KNNYSSRNSNIY [MSS116 C-terminal 12 aa] | 0.713 ± 0.0098 | 0.711 ± 0.028
QIDDVNILKKNP [LIP2 C-terminal 12 aa] | 0.709 ± 0.009 | 0.702 ± 0.053
DNDNDDDIDSDN [RUP1 C-terminal 12 aa] | 0.704 ± 0.051 | 0.6853 ± 0.0067
VACCGCNMTVAY [YIL058W C-terminal 12 aa] | 0.528 ± 0.015 | 0.533 ± 0.029
HWQYMKDYLNLY [SLI1 C-terminal 12 aa] | 0.715 ± 0.033 | 0.684 ± 0.06
FTDDSGTIKQEE [CMR1 C-terminal 12 aa] | 0.713 ± 0.0073 | 0.703 ± 0.026
SLGGDVHSRRCS [ROQ1 C-terminal 12 aa] | 0.7013 ± 0.0028 | 0.662 ± 0.018
NENEFIAICTDS [CDC31 C-terminal 12 aa] | 0.698 ± 0.02 | 0.695 ± 0.022
ETLEAETVKIDI [POL31 C-terminal 12 aa] | 0.69571 ± 0.00029 | 0.7012 ± 0.0013
GLQNRLARNNEK [MRP4 C-terminal 12 aa] | 0.734 ± 0.018 | 0.6607 ± 0.0019
ANARLESESKDP [UNG1 C-terminal 12 aa] | 0.6954 ± 0.0034 | 0.667 ± 0.033
LNLPVQVEKKEK [MMR1 C-terminal 12 aa] | 0.69221 ± 0.00034 | 0.692 ± 0.013
GVSTGYEKIRYI [FUI1 C-terminal 12 aa] | 0.734 ± 0.012 | 0.31 ± 0.025
EAVDRIVSHDEL [SEC20 C-terminal 12 aa] | 0.702 ± 0.014 | 0.6744 ± 0.00081
SLRGCKSVFRRI [HMI1 C-terminal 12 aa] | 0.663 ± 0.0076 | 0.741 ± 0.029
SDILKYILLGSN [SNF4 C-terminal 12 aa] | 0.683 ± 0.0085 | 0.6783 ± 0.0061
NPPERAKVNARS [RCR1 C-terminal 12 aa] | 0.675 ± 0.017 | 0.68 ± 0.042
TSSNPKSHQYSK [ROF1 C-terminal 12 aa] | 0.717 ± 0.0022 | 0.689 ± 0.029

Sequence | protein stability index [1] | protein stability index (genetic background: wild type)
DHQVDFLGNKIL [YLR463C C-terminal 12 aa] | 0.712 ± 0.0082 | 0.715 ± 0.022
EDPDFLQHALQS [GRX3 C-terminal 12 aa] | 0.707 ± 0.013 | 0.704 ± 0.013
SLMIFSSFFLYN [YOR139C C-terminal 12 aa] | 0.6872 ± 0.001 | 0.479 ± 0.02
QLITLLSKHLRT [HMS2 C-terminal 12 aa] | 0.693 ± 0.017 | 0.676 ± 0.042
RRTQAQSRSRKA [PKR1 C-terminal 12 aa] | 0.675 ± 0.0088 | 0.706 ± 0.037
TVRKGVYMRLYY [YNL146C-A C-terminal 12 aa] | 0.668 ± 0.0024 | 0.634 ± 0.036
PQDKPAGQSIWL [HRR25 C-terminal 12 aa] | 0.6795 ± 0.00075 | 0.6948 ± 0.0048
SSSYNYNVHKLA [YDR278C C-terminal 12 aa] | 0.6925 ± 0.0039 | 0.134 ± 0.013
YFKVFDWCKQKR [CLB6 C-terminal 12 aa] | 0.681 ± 0.018 | 0.684 ± 0.043
VKKEPLNEESKP [MIA40 C-terminal 12 aa] | 0.7041 ± 0.0021 | 0.679 ± 0.026
FLPFFLRFLCIN [YML116W-A C-terminal 12 aa] | 0.618 ± 0.021 | 0.206 ± 0.021
TDVVLCARLADD [RIB7 C-terminal 12 aa] | 0.676 ± 0.014 | 0.7 ± 0.038
IDSNNAQSKIFS [MYO1 C-terminal 12 aa] | 0.6956 ± 0.00034 | 0.6648 ± 0.0055
KQMYKYHIIVLF [YBL083C C-terminal 12 aa] | 0.305 ± 0.035 | 0.106 ± 0.0037
ESQPAPKEAPDY [SNP1 C-terminal 12 aa] | 0.674 ± 0.028 | 0.702 ± 0.022
ARGAGGFGSTGN [DUT1 C-terminal 12 aa] | 0.697 ± 0.0079 | 0.7208 ± 0.0062
IGRRKLVGYKHH [ATP20 C-terminal 12 aa] | 0.702 ± 0.02 | 0.666 ± 0.015
LIALNRYIEDLH [MRP20 C-terminal 12 aa] | 0.6999 ± 0.0024 | 0.695 ± 0.007
KVKTKKEEGKER [PXA2 C-terminal 12 aa] | 0.698 ± 0.022 | 0.654 ± 0.0067
ENRPGPYEFRET [FMP41 C-terminal 12 aa] | 0.6916 ± 0.0065 | 0.779 ± 0.053
FVFVRYFNYADS [YCR081C-A C-terminal 12 aa] | 0.631 ± 0.023 | 0.622 ± 0.011

Sequence | protein stability index [1] | protein stability index (genetic background: wild type)
IDKFLNSAVLSA [YMR307C-A C-terminal 12 aa] | 0.5813 ± 0.0033 | 0.637 ± 0.017
FERNYFPYSAVY [CLG1 C-terminal 12 aa] | 0.6077 ± 0.0039 | 0.608 ± 0.018
VLDDAEETKESH [ATP14 C-terminal 12 aa] | 0.689 ± 0.024 | 0.67 ± 0.023
TLFCLLFRFIIF [YIP5 C-terminal 12 aa] | 0.265 ± 0.0053 | 0.2739 ± 0.001
VLLTAYKKLLTK [KEG1 C-terminal 12 aa] | 0.685 ± 0.021 | 0.62079 ± 0.00024
NILKVDSNSSSS [RGR1 C-terminal 12 aa] | 0.7201 ± 0.0019 | 0.702 ± 0.029
EVISSYQIDMIV [HIM1 C-terminal 12 aa] | 0.657 ± 0.013 | 0.62 ± 0.0077
THNEGSSVKKMH [SLC1 C-terminal 12 aa] | 0.694 ± 0.045 | 0.674 ± 0.037
GIGFFAVCFERD [RCM1 C-terminal 12 aa] | 0.6906 ± 0.0028 | 0.664 ± 0.012
LAFFKRDFFKGL [NDI1 C-terminal 12 aa] | 0.699 ± 0.02 | 0.569 ± 0.039
ILVLRHFDEIFI [YOR032W-A C-terminal 12 aa] | 0.63 ± 0.0065 | 0.655 ± 0.044
EHLWNCFFHGSD [IRC20 C-terminal 12 aa] | 0.73 ± 0.012 | 0.731 ± 0.061
NPVVNRHIEHDD [COX13 C-terminal 12 aa] | 0.701 ± 0.011 | 0.707 ± 0.017
DELTTVLNQLVR [EXO70 C-terminal 12 aa] | 0.6823 ± 0.0024 | 0.66 ± 0.011
DTGNTIKCEFIL [ERG29 C-terminal 12 aa] | 0.7022 ± 0.0068 | 0.699 ± 0.017
SKASLINKLIGN [NTR2 C-terminal 12 aa] | 0.685 ± 0.011 | 0.7 ± 0.013
RRSQLREHACVD [LDB7 C-terminal 12 aa] | 0.707 ± 0.013 | 0.7096 ± 0.0049
NNKSIQKVNSPS [PAC2 C-terminal 12 aa] | 0.709 ± 0.0075 | 0.807 ± 0.035
FDELFISTEVEL [TCA17 C-terminal 12 aa] | 0.718 ± 0.018 | 0.6851 ± 0.0011
IQTLRIKQDRYK [MAK10 C-terminal 12 aa] | 0.711 ± 0.0083 | 0.665 ± 0.029
EAEQTKAPKIQI [TMC1 C-terminal 12 aa] | 0.6728 ± 0.0043 | 0.701 ± 0.012

Sequence | protein stability index [1] | protein stability index (genetic background: wild type)
YKSKRNTPTMLS [ISU1 C-terminal 12 aa] | 0.714 ± 0.027 | 0.653 ± 0.026
TASYLKDAVYLH [ATP6 C-terminal 12 aa] | 0.699 ± 0.031 | 0.703 ± 0.025
IVFVPSSSYSVN [YJR157W C-terminal 12 aa] | 0.711 ± 0.014 | 0.671 ± 0.021
LDDNELFKNVWS [AGE2 C-terminal 12 aa] | 0.728 ± 0.017 | 0.713 ± 0.017
IGFKRKRKHAKK [NOP4 C-terminal 12 aa] | 0.703 ± 0.051 | 0.7117 ± 0.0028
MAMPPGQSQPQY [DHH1 C-terminal 12 aa] | 0.727 ± 0.0093 | 0.713 ± 0.034
EEDPEYFQHALQ [GRX4 C-terminal 12 aa] | 0.71049 ± 4e-05 | 0.715 ± 0.049
LALFAGLISALL [GAS3 C-terminal 12 aa] | 0.71854 ± 0.00069 | 0.654 ± 0.0065
KPIEKVYFNRGI [FSF1 C-terminal 12 aa] | 0.713 ± 0.051 | 0.7368 ± 0.0054
CFRWLVRNHLLS [YEL045C C-terminal 12 aa] | 0.692 ± 0.0081 | 0.187 ± 0.0022
NCPGCESKPVIT [SSL1 C-terminal 12 aa] | 0.678 ± 0.016 | 0.683 ± 0.0096
NDISFAFQYISH [RAD54 C-terminal 12 aa] | 0.749 ± 0.014 | 0.683 ± 0.069
FVVKEGLLKNRK [GTF1 C-terminal 12 aa] | 0.701 ± 0.027 | 0.7 ± 0.024
VIWQERETTANK [EMI1 C-terminal 12 aa] | 0.724 ± 0.033 | 0.676 ± 0.038
LCEFLKGVQSAL [DAK1 C-terminal 12 aa] | 0.7137 ± 0.005 | 0.683 ± 0.011
FALVLAYMRLLT [FMP32 C-terminal 12 aa] | 0.4219 ± 0.0012 | 0.237 ± 0.012
GTVDEIIKFLSE [YTA7 C-terminal 12 aa] | 0.725 ± 0.023 | 0.736 ± 0.066
FRVVLNAQLNIQ [YOR108C-A C-terminal 12 aa] | 0.69 ± 0.036 | 0.674 ± 0.006
ELTRLVDSKRKR [HFA1 C-terminal 12 aa] | 0.717 ± 0.045 | 0.667 ± 0.011
